Source: patent publication US20050002900A1, “Method of treating estrogen responsive breast cancer” (priority 2001, published 2005)
Each block holds one molecule with its values, some of them ahead of it.

How the values were obtained:
[1] = system: aromatase mRNA; test: RT-PCR of aromatase mRNA in cultured adipocytes; type: cell-based, human; conditions: for transcription of aromatase mRNA: cytokine alone compared to untreated control; for expression of aromatase mRNA in human adipocytes: interferon alone, endogenous expression, FIG. 3
Procedure: (§1) Human subcutaneous cultured adipocytes and preadipocytes, catalog nos. SP-1012, SP-1024, SP-1096, SP-75, or SP-25 were purchased from Zen-Bio, Inc. (Research Triangle Park, N.C.) and cultured according to the manufacturer's instructions.
Adipocyte cultures were treated with IL-1-β, IFN-γ, TNF-α, and combinations of IL-1-β and IFN-γ and TNF-α and IFN-γ. Consequently, total RNA from cultured adipocytes was isolated using conventional methods. The reverse transcriptase polymerase chain reaction (RT-PCR) was performed using aromatase specific primers. The amplified aromatase cDNA fragments produced by RT-PCR were separated on an agarose gel. […] The estradiol production by the cells is shown as pikograms/ml (pg/ml) below the photograph of the gel showing the aromatase mRNA levels.
(§2) The isolated human adipocytes were also treated with different interferon family members: IFN-α, -β, and -γ.

[2] = system: human adipocytes; test: Estradiol production by cultured human adipocytes (Active Estradiol EIA kit); type: cell-based; conditions: for estradiol amount: cytokine alone at increasing concentrations
Procedure: as §1
The culture medium of the preadipocytes was supplemented with 0.1 μg/ml IFN-γ and increasing concentrations of either TNF-α or TNF-β as shown in FIG. 1. Estradiol concentrations were measured using the Active™ Estradiol EIA kit according to the manufacturer's instructions (catalog no. DSL-10-4300, Diagnostic Systems Laboratories, Inc., Webster, Tex.).
as §2

B1: IFN-γ: interferon gamma, added at 0.1 μg/ml to adipocyte culture medium (protein, UniProt P01579 24-161, looked up)
Interferon gamma: QDPYVKEAENLKKYFNAGHSDVADNGTLFLGILKNWKEESDRKIMQSQIVSFYFKLFKNFKDDQSIQKSVETIKEDMNVKFFNSNKKKRDDFEKLTNYSVTDLNVQRKAIHELIQVMAELSPAAKTGKRKRSQMLFRG
transcription of aromatase mRNA induced by IL-1β ([1]; given together with IL-1β, FIG. 2): inhibits
transcription of aromatase mRNA induced by TNFα ([1]; given together with TNFα, FIG. 2): inhibits
expression of aromatase mRNA in human adipocytes [1]: inhibits
TNF-α induced estradiol production ([2]; 0.1 μg/ml IFN-γ, increasing concentrations of TNF-α, FIG. 1): inhibits
TNF-β induced estradiol production ([2]; 0.1 μg/ml IFN-γ, increasing concentrations of TNF-β, FIG. 1): inhibits
estradiol production ([2]; IFN-γ alone, FIG. 3): blocked completely

B2: TBP: soluble TNF binding protein, TNF-R1, as described in U.S. Pat. No. 6,225,300 (protein, UniProt P19438 30-211, looked up)
extracellular domain: LVPHLGDREKRDSVCPQGKYIHPQNNSICCTKCHKGTYLYNDCPGPGQDTDCRECESGSFTASENHLRHCLSCSKCRKEMGQVEISSCTVDRDTVCGCRKNQYRHYWSENLFQCFNCSLCLNGTVHLSCQEKQNTVCTCHAGFFLRENECVSCSNCKKSLECTKLCLPQIENVKGTEDSGTT
modifications: extracellular domain
TNF-α induced estradiol production ([2]; TNF-α at varying concentrations plus TBP, FIG. 4): completely blocked
TNF-β induced estradiol production ([2]; TNF-β at varying concentrations plus TBP, FIG. 4): completely blocked

B3: TNF-β: tumor necrosis factor beta (protein, UniProt P01374 35-205, looked up)
Lymphotoxin-alpha: LPGVGLTPSAAQTARQHPKMHLAHSTLKPAAHLIGDPSKQNSLLWRANTDRAFLQDGFSLSNNSLLVPTSGIYFVYSQVVFSGKAYSPKATSSPLYLAHEVQLFSSQYPFHVPLLSSQKMVYPGLQEPWLHSMYHGAAFQLTQGDQLSTHTDGIPHLVLSPSTVFFGAFAL
estradiol amount ([2]; FIG. 1): significantly increased

More lines, main results first:

transcription of aromatase mRNA ([1]; FIG. 2): induced
Molecule: IL-1β: interleukin-1β

transcription of aromatase mRNA ([1]; FIG. 2): induced
Molecule: TNF-α
estradiol amount ([2]; FIG. 1): significantly increased

expression of aromatase mRNA in human adipocytes [1]: significantly increased
Molecule: IFN-α
estradiol production increase upon interferon induction ([2]; interferon alone, FIG. 3): about 6 fold
